From the nanobody polyreactivity screen of Harvey et al. (2022)

Assay: yeast display, Sf9 membrane polyspecificity reagent, FACS + sequencing; frameworks hold sequencing errors
In short: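 In a synthetic yeast display library (Saccharomyces cerevisiae BJ5465), nanobody expression was induced with galactose for 36–48 hours. FACS gates were set low and high (top ~1%) using anti-HA fluorescence for expression and streptavidin fluorescence for binding of the Sf9 membrane reagent. Each polyreactivity label is drawn from the gate of origin.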

Sequence	polyreactivity (PSR sort gate)
QVQLGESGGRLVQAGGSLRLSCAASGSTFPTNAMGWSRQGPGKERELVAAITSTGSTYADSVKGRYTISRDNVKNTVYLQMNSVKPEDTAVYYCAADTQWTTPYDYWGQGTQVTVSS	low polyreactivity
QVQLVESGGGLVQAGGSLRLSCAASGITLGRYAMGWYRQAPGQERELVAAISSWSGGSTTYADSVKGRFTISRDNAKNTVYLQMNSLKPEDTAVYYCNARRYYGRYYLGHSDYDYWGQGTQVTVSS	high polyreactivity
QVQLVESGGGLVQAGGSLRLSCAASGFTFYYYAMGWYRQAPGKERELVAAIDTSDGSTYYADSVKGRFTISRDNAKNTVYLQMNSLKPEDTAVYYCAAEVDCVPFLLDYWGQGTQVTVSS	low polyreactivity
QVQLVESGGGLVQAGGSLRLSCPASGRIYGYYVMGWYRQAPGKERELVASITSGGSTYYADSVKRRFTISRDNAKYTVYFQMNSLKPEDTAVYDCAARRAWSWKIYDYWGQGTQVTVSS	high polyreactivity
QVQLVESGGGLVQAGGSLRLSCAASGRIFGVYVMGWYRQAPGKERELVAAISWSGSHTYYADSVKGRFTISRDNAKNTVYLQMNSLKPEDTAVYYCAAGASLWRLGLKMGYWGQGTQVTVSS	low polyreactivity
QVQLVESGGGLVQAGGRLRLSCAASGITFYDYAMGWYRQAHGKERELVAVITRRGGSTYYAHSVKGRFTISRDNAKNTVYLQMNSLKPEDTAVYYCNADRTAPERYSRVPSSDSWGQGTQVTVSS	high polyreactivity
QVQLVESGGGLVQAGGTLRISCAASGSTAYVMGWYRQAPGKEMELVAAISKSGGSTYYADSVKGRFTISRDNAKNTVYLQMNSLKPEDTAVYYCAALYPTTTAYRYGYWGQGTQVTVSS	high polyreactivity
QVQLVESGGGLLLAGGSLRLSCAASGNIFRANTRGWYRQAPGKERELVASIRRSGGSTYYADSVKGRFTISRDNAKNTVYLQMNSLKPEDTAVYYCAAKSRPPYTDNYYWGQGTQVTVSS	high polyreactivity
QVQLVESGGGLVQAGGSLRLSCAASGRILWQYAMGWYRPAPGKERELVAAITSSGADTYYADSVKGRFTISRDNAKNTVYLQMNSLKPEDTAVYYCNADASAVVYKFGFGYWGQGTQVTVSS	low polyreactivity
QVQLVESGGGLVQAGGSLRLTSAASGSIFPYNAMGWYRPAPGKDSELLARISWSGGSTYYADSVKGRFTISRDNAKNTVYLQMKSLKPEDTALYYGAATIIFDAQYRFYYWGQGTQVTVSS	low polyreactivity
QVQLVESGGGLVQAGGSLRLSCAASGFTLTPYAMGWYRQAPGKERELVAAITYTGGSTYYADSVKGRFTISRDNAKNTVYLQMNSLKPEDTAVYYCAAEFLSVPYDYCYWGQGTQVTVSS	high polyreactivity
QVQLVESGGGLVQAGGSLRLSCAASGSIFPGYAMGWYRQAPGKERELVAGITWSDARTYYADSVKGLFTISRDNAKNTVYLQMNSLKPEDTAVYYCAADYYYYERDYWGQGTQVTVSS	low polyreactivity
QVQLVESGGGLVQAGGSLRLSCAASGSIFGANAMGWYRQAPGKERELVAAISTRGGRTYYADSVKGRFTISRDIAKNTVYLQMNSLKPEDTAVYYCAAYSSYPEYRRGKYDYWGQGTQVTVSS	high polyreactivity
QVQLVESRGGLVQSGGSLRLSCAASGSIFEIYHMGRYRQAPGNERELVASIRTSGGSTYYADSVKGRFTISRDNAKNTVYLQMNSLKPEDTAVYYCAAVGRSYYGHDYWGQGTQVTVSS	low polyreactivity
QVQLVESGGGLVQAGGSLRLSCAASGSIFWGNAMGWYRQAPGKERELVAGISRGGSTYYADSVKGRFTISRDNAKNTVYLQMNSLKPEDTAVYYCNADSDPVTAGYDYWGQGTQVTVSS	low polyreactivity
QVQLVESGGGLVQAGGSLRLSCAASGSTFADNAMGWDRQAPGKERELVAAISSDGSTNYADSVKGRFTISRDNAKNTVYLQMNSLKPEDTAVYYCNADGVYLGYPVVPPEGDYWGQGTQVTVSS	low polyreactivity
QVQLVESGGGLVQAGGSLRLSCAASGRTFYGYAMGWYRPAPGKERELVAAIDRGGSTDYADSVKGRFTISRDNAKNTVYLQLNSLKTEDTAVYYCAKGYDYYGRRYYYWGQGTQVTVSS	high polyreactivity
QVQLVESGGGLVQAGGSLRLSCAASGRIFKSYAMGWYRQAPGKERELVAAISRGGRTNYADSVKGRFTISRDNAKNTVYLQMNSLKPEDTAFYYCAARFVVQGHSSPYDYWGQGTQVTVSS	high polyreactivity
QVQLVESAGGLVQAGGSLRLSCAASGLTFYRYAMGWYRQAPGKERELVAAISSADRTYYADSVKGRFTISRDNAKNTVYLQMNSLKPEDTAVYYCNARGIGRSTKWSSRDYWGQGTQVTVSS	high polyreactivity
QVQLVESGGGLVQAGGSLRITCAASASIYYRYAMGWNRQAPGKERELVAAITYSGGSTYYADSVKGRFTISRDNAKNPVYLQMNSLKPEDTAVYYCAKDYPPPISDYSRYYGYGYWGQGTQVTVSS	low polyreactivity
QVQLVESGGGLVQAGGSLRLSCAASGSIYVYNAMGWYRQAPGKERELVAAIDTVGSTNYADSVKGRFTISRDNAKNTVYLQMNSLKPEDTAVYYCAVVTPYWSFYDQVIPSNYWGEGTQVTVSS	low polyreactivity
QVQLVESGGGLVQAGGSLRLSCAASGLTFVANAMGWYRQAPGKERELVAAIDYGGGHTYYADSVKGRFTISRDYAKNTVYLQMNSLKPEDTAVYYCAVGLPHGGRRLYGSWYRFDYWGQGTQVTVSS	low polyreactivity

Sequence	polyreactivity (PSR sort gate)
QVQLVESGGGLVQAGGSLRLSCAASGSIFAPYAMGRYRQAPGKERELVAAISTTGGTTYYADSVKGRFTISRDNAKNTVYLQMNSLKPEDTAVYYCAADWSESFGKGGDYWGQGTQVTVSS	low polyreactivity
QVQLVESGGGLVQAGGSLRLSCAASGRIFYIYAMGWYRQAPGKERELVAAISTGGGGTYYADSVKGRFTISRDNAKNTVYLQMNSLKPEDTAVYYCAVDSKPRYREFDYWGQGTQVTVSS	high polyreactivity
QVQLVESGGGLVQAGGSLRLSCAASGRTFYNYAMGWYRQAPGKERELVAAISWSDGTTYYADSVKGRFTISRDNAKNTVYLQMNSLKPEDTAVYYCAAEFESSFALGFYYWGQGTQVTVSS	high polyreactivity
QVQLVESGGGLVQAGCSLRLSCAASGRIFRGNAMGWYRQAPGKERELVARITGNDGDTYYADSVKGRFTISRDNAKNTVYLQMNSLNPEDTAVYYCATDTSSYRRRYYYWGQGTQVTVSS	low polyreactivity
QLQLVESGGGIVQAGGSLRLSCAASGSTFLRNAMGRYRQAPGKKGSGVATISYDGYSTYYADSVKGRLTISRDNAKNSFYLQMNSLKPEDTAVYYCAASYSLTFWDKDDYWGQGSQVTVSS	low polyreactivity
QVHLVESGGGLVQAGGSLRLTCAASGIIFLRYAIGWYRQAPGKERDLVAAITRGGITYYADSVKGRFTISRDNAKNTVYLQMNSLKPEDTAVYYCAATYSGNYSMCRGYDYWGQGTQVTVSS	low polyreactivity
QVQLVESGGGLVQAGGSLRLSCAASGRIFAYYAMGWYRQAPGKERELVAAITWRGGRTYYADSVKGRFTISRDNAKTTVYLQMNSLKPEDTAVYYCAARGYYSTYKLATDDYWGQGTQVTVSS	high polyreactivity
QVQLVESGGGLVQAGGSLRLTCAASGRTFDQYAMGWYRQAPGKERDLVAAITSGGSTYYADSVKGRFTISRDNAKNTVYLQMNSLKPEDTAVYYCYTDSSFWGYYIAQVNERDYWGQGTQVTVSS	low polyreactivity
QVQLVESGGGLVQAGGSLRLSCAASGYTFKYYTMGWYRQAPGKESELVAAITRSGGSTYYADSVKGRFTISRDNAKNTVYLQINSLKPEDTAVYYCAARAAYKQPVSFDYWGQGTQVTVSS	high polyreactivity
QVQLVESGGGLVQAGGSLRLSCAASGSIFSSNAMGWYRQAPGTTNYADSVKGRFTISRDNAKNTVYLQMNSLKPEDTAVYYCAKDYVLFQYVDFQDDDYWGQGTQVTVSS	low polyreactivity
QVQLVESGGGLVQAGGSLRLSCAASGSIFKVNVMGWYRQAPGKERELVAAISRSGGNTYYADSVKGRFTISRDNAKNTVYLQMNSLKPEDTAVYYCATGASYLRRYDHPHSDVDYWGQGTQVTVSS	low polyreactivity
QVQLVESGGGLVQAGGSLRLSCAASGIIFYRSVMGWYRQAPGKERELVAAITSGGSTNYADSVKGRFTISRDNAKNTVYLQMNSLKPEDTAVYYCAAVPRYRRWKYDYWGQGTQVTVSS	high polyreactivity
QVQLVESGGGLVQAGGSRRLSCAASGSTFRANAMGWYRQAPGKERELVAAITSSGGSTYYADSVKGRFTISRDNAKNTVYLQMNSLKPEDTAVYYCAAYPRPYIGYTDGYVWYEFDYWGQGTQVTVSS	low polyreactivity
QVQLVESGGGLVQAGGSLRLSCAASGRTFIGNAMGWYRQAPGKERELVAGISYRGGSTYYADSVKGRFTISRDNAKNTVYLQMNSLKPEDTAVYYCAAPGRGGYYYWGQGTQVTVSS	high polyreactivity
QVQLVESGGGLVQAGGSLRLSCAASGFTFRLNAMGWYRQAPGKERELVAAITRSGGNTYYADSVKGRFTISRDNAKNTVYLQMNSLKPEDTAVYYCAVRQLDRRSPKYNYWGQGTQVTVSS	high polyreactivity
QVQLQESGGGMVQAGGSLRLSCAASGYISWADYKGWYRQAPGKERELVAGIGYGSTTYYADSVKGRFTISRDNAINTAYLQMNSLKPEDTAVYYCAVGWYRDTAYKYWGHGTQVTVSS	low polyreactivity
QVQLVESGGGLVQAGGSLRLSCAASGRIFKGYAMGWYRQAPGKERELVAAITWRGGTTYYADSVKGRFTISRDNAKNTVYLQMNSLKPEDTAVYYCATTRYPRSYDYYYWGQGTQVTVSS	high polyreactivity
QVQLVESGGGLVQAGGSLRLSCAASGRIFRGYAMGWYRQAPGTERELVAAISRRGGSTYYAASVKGRFTISRDNAKNTVYLQNNSLKPEDTAVYYCNADGVHYVAYAGGYWGQGTQVTVSS	high polyreactivity
QVQLVESGGGLVQAGGSLRLSCAASGRIFTGYAMGWYRQAPGTERELVAAISDGGSTNYADSVKGRFTISRDNAKNTVYLQMNSLKPEDTAVYYCAADGHSSDKYDYWGQGTQVTVSS	low polyreactivity
QVQHVESGGGLVQAGGSLRLSCAASGRILKPNAMGWYRPAPGKERELVAAIRWRGDITYYADSVKGRFTISRDNAKNTVYLQMNSLKPEDTAVYYCNARTYYRRQKYDYWGQGTKVTVSS	high polyreactivity
QLQLVESGGGLVQAGGSLRLSCAASGYIFGWYAMGWYRQAPGKERELVATIDWSGDSTYYADSVKGRFTISRDNAKNTVYLQLNSLKPEATAVYYCAVGYSYYPSDEFDYWGQGTQVTVSS	low polyreactivity
